In the supplement of paper PMC7877785:
± gives the uncertainty stated by the source.

Assay: self-splicing fitness, log relative to wild type (ln ratio); higher = more splicing; Tetrahymena group I intron in knt gene, E. coli kanamycin selection, DiMSum; sequences stand for … in CUCUCU…GGAGGGAAAAGUUAUCAGGCAUGCACCUGGUAGCUAGUCUUUAAACCAAUAGAUUGCAUCGGUUUAAAAGGCAAGACCGUCAAAUUGCGGGAAAGGGGUCAACAGCCGUUCAGUACCAAGUCUCAGGGGAAACUUUGAGAUGGCCUUGCAAAGGGUAUGGUAAUAAGCUGACGGACAUGGUCCUAACCACGCAGCCAAGUCCUAAGUCAACAGAUCUUCUGUUGAUAUGGAUGCAGUUCACAGACUAAAUGUCGGUCGGGGAAGAUGUAUUCUUCUCAUAAGAUAUAGUCGGACCUCUCCUUAAUGGGAGCUAGCGGAUGAAGUGAUGCAACACUGGAGCCGCUGGGAACUAAUUUGUAUGCGAAAGUAUAUUGAUUAGUUUUGGAGUACUCGUGGUCG
Procedure, shortened: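 DiMSum derived fitness as the error-weighted combination of fold changes across replicates, kanamycin versus no kanamycin, normalised to wild type. E. coli BL21(DE3) held the library, which randomised all eight P1ex-region intron nucleotides within the knt kanamycin-resistance gene on pET-22b(+). Six replicate transformations grew overnight at 37°C or 30°C on LB agar with or without 25 μg/mL kanamycin, also containing 100 μg/mL carbenicillin, 50 μM IPTG and 0.2% rhamnose, and pooled colonies were amplicon-sequenced on an Illumina HiSeq 2500.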

Sequence | self-splicing fitness (ln) (30 °C) | self-splicing fitness (ln) (37 °C)
UAUUAGCAAUAUUACGAACC | -0.688 ± 0.36 | –
UAUUAGCAAUAUUACGACAA | -0.602 ± 0.17 | -0.127 ± 0.24
UAUUAGCAAUAUUACGACCU | -1.41 ± 0.16 | -0.551 ± 0.15
UAUUAGCAAUAUUACGAGCA | -0.606 ± 0.12 | -0.18 ± 0.17
UAUUAGCAAUAUUACGAGGG | -3.12 ± 0.3 | -2.13 ± 0.3
UAUUAGCAAUAUUACGAGUU | -2.88 ± 0.16 | -0.971 ± 0.15
UAUUAGCAAUAUUACGCACU | -1.04 ± 0.19 | -1.12 ± 0.16
UAUUAGCAAUAUUACGCAUU | -2.09 ± 0.15 | -1.48 ± 0.17
UAUUAGCAAUAUUACGCCAU | – | -1.68 ± 0.21
UAUUAGCAAUAUUACGCGAC | -3.03 ± 0.25 | -1.41 ± 0.24
UAUUAGCAAUAUUACGCGUU | -3.05 ± 0.19 | -0.613 ± 0.15
UAUUAGCAAUAUUACGCUGU | -2.57 ± 0.23 | 0.0696 ± 0.22
UAUUAGCAAUAUUACGCUUU | -2.01 ± 0.16 | -0.435 ± 0.18
UAUUAGCAAUAUUACGGAGC | -2.4 ± 0.42 | –
UAUUAGCAAUAUUACGUAUA | -1.6 ± 0.18 | -2.03 ± 0.21
UAUUAGCAAUAUUACGUAUG | -1.65 ± 0.15 | -0.344 ± 0.17
UAUUAGCAAUAUUACGUGCG | -0.929 ± 0.079 | -0.636 ± 0.12
UAUUAGCAAUAUUACGUGUA | -1.21 ± 0.16 | -0.828 ± 0.16
UAUUAGCAAUAUUACGUUCU | -2.64 ± 0.24 | -1.19 ± 0.17
UCAAAGCAAUAUUACGAAAU | -2.52 ± 0.2 | -2.53 ± 0.27

Sequence | self-splicing fitness (ln) (30 °C) | self-splicing fitness (ln) (37 °C)
UCAAAGCAAUAUUACGAAUA | -1.92 ± 0.43 | -1.78 ± 0.3
UCAAAGCAAUAUUACGACAC | -3.05 ± 0.48 | -1.97 ± 0.43
UCAAAGCAAUAUUACGAGCU | -2.83 ± 0.23 | -1.38 ± 0.22
UCAAAGCAAUAUUACGAGGA | -2.69 ± 0.15 | -0.561 ± 0.13
UCAAAGCAAUAUUACGAGGC | – | -2.69 ± 0.3
UCAAAGCAAUAUUACGAUAC | -3.34 ± 0.28 | -2.82 ± 0.28
UCAAAGCAAUAUUACGAUAG | -0.853 ± 0.11 | -2.03 ± 0.15
UCAAAGCAAUAUUACGAUGA | -0.6 ± 0.074 | -0.51 ± 0.084
UCAAAGCAAUAUUACGCAUG | -1.44 ± 0.12 | -1.27 ± 0.14
UCAAAGCAAUAUUACGCCUU | -3.63 ± 0.26 | -2.93 ± 0.28
UCAAAGCAAUAUUACGGAAA | -2.64 ± 0.41 | -1.15 ± 0.19
UCAAAGCAAUAUUACGGAGG | -3.48 ± 0.28 | -1.67 ± 0.21
UCAAAGCAAUAUUACGGGGC | -2.18 ± 0.16 | -2.14 ± 0.19
UCAAAGCAAUAUUACGGUAU | -4.12 ± 0.24 | -3.55 ± 0.29
UCAAAGCAAUAUUACGUAAC | -3.86 ± 0.21 | -2.39 ± 0.27
UCAAAGCAAUAUUACGUCCC | -0.356 ± 0.2 | -1.14 ± 0.47
UCAAAGCAAUAUUACGUGGA | -1.49 ± 0.1 | -1.6 ± 0.11
UCAAAGCAAUAUUACGUGUC | -3.25 ± 0.22 | -1.69 ± 0.19
UCAAAGCAAUAUUACGUUCA | -0.821 ± 0.099 | -0.534 ± 0.11
